Assay results taken from article PMC10663500, “High-throughput analysis system of interaction kinetics for data-driven antibody design” (Scientific Reports, 2023).
Numbering of substitutions follows the chain as printed.

B1: toripalimab Fab (wild-type) (Fab, V domains shown)
VH: QGQLVQSGAEVKKPGASVKVSCKASGYTFTDYEMHWVRQAPIHGLEWIGVIESETGGTAYNQKFKGRVTITADKSTSTAYMELSSLRSEDTAVYYCAREGITTVATTYYWYFDVWGQGTTVTVSS
VL: DVVMTQSPLSLPVTLGQPASISCRSSQSIVHSNGNTYLEWYLQKPGQSPQLLIYKVSNRFSGVPDRFSGSGSGTDFTLKISRVEAEDVGVYYCFQGSHVPLTFGQGTKLEIK
notes: toripalimab Fab heavy chain (VH-CH1); toripalimab Fab light chain (VL-CL); Residue numbers count consecutively from residue 1 of each chain; also called anti-hPD-1 antibody toripalimab; source: Brevibacillus, secreted into culture supernatant, ammonium sulfate precipitate (not further purified); not shown: 6xHis, C-terminal, kept; 6xHN, C-terminal, kept
B2: toripalimab Fab L.P100H (Fab, V domains shown)
VH: B1 VH
VL: B1 VL with P100H
notes: as the heavy chain of m1; as the light chain of m1, with the stated change; source: Brevibacillus, secreted into culture supernatant, ammonium sulfate precipitate (not further purified); not shown: 6xHis, C-terminal, kept; 6xHN, C-terminal, kept
B3: toripalimab Fab L.V99G (Fab, V domains shown)
VH: B1 VH
VL: B1 VL with V99G
notes: as for B2
B4: toripalimab Fab L.L101S (Fab, V domains shown)
VH: B1 VH
VL: B1 VL with L101S
notes: as the heavy chain of Sm3; light chain of Sm3 with this change; numbers count from the chain's first residue; source: Brevibacillus, culture supernatant (ammonium sulfate precipitate); not shown: 6xHis, C-terminal, kept; 6xHN, C-terminal, kept
B5: toripalimab Fab L.L101M (Fab, V domains shown)
VH: B1 VH
VL: B1 VL with L101M
notes: as for B4
B6: toripalimab Fab L.L101V (Fab, V domains shown)
VH: B1 VH
VL: B1 VL with L101V
notes: as for B4
B7: toripalimab Fab L.L101N (Fab, V domains shown)
VH: B1 VH
VL: B1 VL with L101N
notes: as for B4
B8: toripalimab Fab L.L101Q (Fab, V domains shown)
VH: B1 VH
VL: B1 VL with L101Q
notes: as for B4
B9: toripalimab Fab L.L101T (Fab, V domains shown)
VH: B1 VH
VL: B1 VL with L101T
notes: as for B4
B10: toripalimab Fab H.E54A (Fab, V domains shown)
VH: B1 VH with E54A
VL: B1 VL
notes: heavy chain of Sm3 with this change; numbers count from the chain's first residue; as the light chain of Sm3; source: Brevibacillus, culture supernatant (ammonium sulfate precipitate); not shown: 6xHis, C-terminal, kept; 6xHN, C-terminal, kept
B11: toripalimab Fab L.T102A (Fab, V domains shown)
VH: B1 VH
VL: B1 VL with T102A
notes: as for B4
B12: toripalimab Fab L.L101Y (Fab, V domains shown)
VH: B1 VH
VL: B1 VL with L101Y
notes: as for B4
B13: toripalimab Fab L.L101K (Fab, V domains shown)
VH: B1 VH
VL: B1 VL with L101K
notes: as for B4
B14: toripalimab Fab L.T102Y (Fab, V domains shown)
VH: B1 VH
VL: B1 VL with T102Y
notes: as for B4
B15: toripalimab Fab L.L101G (Fab, V domains shown)
VH: B1 VH
VL: B1 VL with L101G
notes: as for B4
B16: toripalimab Fab L.L101I (Fab, V domains shown)
VH: B1 VH
VL: B1 VL with L101I
notes: as for B4

Biological target: T1, human programmed cell death protein 1 C93S (aa 24-167) (Homo sapiens, UniProt Q15116, C93S)
T1 construct: residues of the TEV site may be left after cleavage; also called hPD-1; human PD-1; source: Expi293F, transfected, purified (Protein A, TEV cleavage of Fc, Protein A + Ni-Sepharose, SEC; monomer fractions)
T1 sequence (Q15116 24-167 C93S): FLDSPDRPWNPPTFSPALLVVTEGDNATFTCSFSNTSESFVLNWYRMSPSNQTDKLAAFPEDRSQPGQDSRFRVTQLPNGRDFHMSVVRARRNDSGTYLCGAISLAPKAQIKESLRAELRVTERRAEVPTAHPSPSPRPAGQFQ
Experiment: SPR; BreviA on Carterra LSA: Fab from ammonium sulfate precipitate of Brevibacillus supernatant immobilised on NiHC200M sensor; hPD-1 (1-1024 nM) or mPD-1-Fc (4-1024 nM) as analyte, fourfold dilution series, no regeneration; HBS-EP pH 7.4, 25 °C; medians of spots
Details: one partner purified

B1 showed a koff of less than 1e-05 s⁻¹.

Biological target: T2, mouse programmed cell death protein 1 C60S (aa 25-167) Fc fusion protein (Mus musculus, UniProt Q02242, stabilised)
T2 construct: the Fc was not cleaved; also called mPD-1-Fc; mPD-1 Fc fusion protein; source: Expi293F, transfected, purified (Protein A, SEC; dimeric fraction)
Experiment: as above
Details: one partner purified

B2 and B3 cannot be ordered by “fold increase in affinity against the wild type” value: greater than 100 fold for the first, greater than 100 fold for the second.

Biological target: T3, human programmed cell death protein 1 (hPD-1) C93S (aa 24-167) (Homo sapiens, UniProt Q15116, C93S)
T3 construct: made as a fusion with a TEV site and human Fc; the Fc was cut off with TEV protease; source: Expi293F, purified (Protein A, TEV cleavage of Fc, SEC; monomer fractions); not shown: Fc (human), C-terminal, cleaved
T3 sequence (Q15116 24-167 C93S): as above
Experiment: SPR; Carterra LSA; Fab from the ammonium sulfate precipitate of the culture supernatant immobilised on a NiHC200M chip; hPD-1 (1-1024 nM) or mPD-1-Fc (4-1024 nM) as analyte, fourfold dilution series, no regeneration; HBS-EP pH 7.4, 25 °C; medians over the spots of a construct, KD = koff/kon
Details: one partner purified
How it was run: (§1)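 Fabs from Brevibacillus culture supernatants were ammonium sulfate-precipitated, redissolved in HBS-EP and captured in duplicate on a NiHC200M chip (Carterra LSA, 25 °C). Human PD-1 (1–1024 nM) or mouse PD-1-Fc (4–1024 nM) flowed as fourfold series without regeneration, with 10 min association and 5 min dissociation; unconfirmed binders were set to kon 10^3 […], koff 10^−2 s^−1. Rates came from kdka model fits (slow- or fast-dissociation settings, best fit); KD is koff/kon from per-construct medians.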

Compared with B4, B5 is lower in Kd: 4.13 nM for the first, less than 1.08 nM for the second.

Compared with B6, B7 is lower in Kd: 2.41 nM for the first, less than 1.23 nM for the second. The second binds more tightly here.

Compared with B8, B9 is 1.8-fold higher in Kd: 2.78 nM for the first, 5.05 nM for the second. The first binds more tightly here.

Compared with B10, B11 is lower in Kd: 1.23 nM for the first, less than 0.809 nM for the second.

Compared with B12, B13 is higher in Kd: less than 1.18 nM for the first, 492 nM for the second. The first binds more tightly here.

B14 and B15 cannot be ordered by Kd: less than 0.441 nM for the first, less than 1.95 nM for the second.

With B16 the Kd was less than 1.55 nM.

Compared with B4, B5 is lower in koff: 2.42e-05 s⁻¹ for the first, less than 1e-05 s⁻¹ for the second.

First: B6
Second: B7
The koff of the first is higher: 1.35e-05 s⁻¹ for the first, less than 1e-05 s⁻¹ for the second.

B8 and B9 are within 1.5-fold of each other in koff: 2.5e-05 s⁻¹ for the first, 3.03e-05 s⁻¹ for the second.

Going from B10 to B11, the koff falls from 2.52e-05 s⁻¹ to less than 1e-05 s⁻¹.

Going from B12 to B13, the koff rises from less than 1e-05 s⁻¹ to 0.00276 s⁻¹.

B14 and B15 cannot be ordered by koff: less than 1e-05 s⁻¹ for the first, less than 1e-05 s⁻¹ for the second.

B16 was tested, and the koff was less than 1e-05 s⁻¹.

In order of falling kon:
1. B14  22700 M⁻¹ s⁻¹
2. B10  20400 M⁻¹ s⁻¹
3. B11  12400 M⁻¹ s⁻¹
4. B5  9290 M⁻¹ s⁻¹
5. B8  8990 M⁻¹ s⁻¹
6. B12  8500 M⁻¹ s⁻¹
7. B7  8160 M⁻¹ s⁻¹
8. B16  6430 M⁻¹ s⁻¹
9. B9  6000 M⁻¹ s⁻¹
10. B4  5870 M⁻¹ s⁻¹
11. B6  5600 M⁻¹ s⁻¹
12. B13  5600 M⁻¹ s⁻¹
13. B15  5120 M⁻¹ s⁻¹

Biological target: T4, mouse programmed cell death protein 1 Fc fusion protein (mPD-1-Fc), mPD-1 C60S (aa 25-167) (Mus musculus, UniProt Q02242, stabilised)
T4 construct: not cleaved; source: Expi293F, purified (Protein A, SEC; dimeric fraction); not shown: Fc (human), C-terminal, kept
Experiment: as above
Details: one partner purified
How it was run: as §1

In order of rising Kd:
1. B5  24.5 nM
2. B16  34.3 nM
3. B15  40.1 nM
4. B4  48.2 nM
5. B14  78.4 nM
6. B6  90.5 nM
7. B11  115 nM
8. B9  116 nM
9. B12  125 nM
10. B7  134 nM
11. B10  202 nM
12. B8  265 nM
13. B13  606 nM

In order of rising koff:
1. B15  0.000405 s⁻¹
2. B16  0.00056 s⁻¹
3. B4  0.000659 s⁻¹
4. B5  0.000673 s⁻¹
5. B6  0.00146 s⁻¹
6. B9  0.00235 s⁻¹
7. B14  0.00282 s⁻¹
8. B12  0.00356 s⁻¹
9. B11  0.00395 s⁻¹
10. B7  0.00447 s⁻¹
11. B10  0.00772 s⁻¹
12. B8  0.0143 s⁻¹
13. B13  0.0212 s⁻¹

In order of falling kon:
1. B8  54000 M⁻¹ s⁻¹
2. B10  38300 M⁻¹ s⁻¹
3. B14  36000 M⁻¹ s⁻¹
4. B13  35000 M⁻¹ s⁻¹
5. B11  34200 M⁻¹ s⁻¹
6. B7  33300 M⁻¹ s⁻¹
7. B12  28400 M⁻¹ s⁻¹
8. B5  27500 M⁻¹ s⁻¹
9. B9  20400 M⁻¹ s⁻¹
10. B16  16300 M⁻¹ s⁻¹
11. B6  16100 M⁻¹ s⁻¹
12. B4  13700 M⁻¹ s⁻¹
13. B15  10100 M⁻¹ s⁻¹
